Experimental findings from doi:10.1101/235556 are described below.

The target of the test is Polyhydroxyalkanoate synthase PhaC from Aquitalea sp. USM4 (JCM 19919) (Aquitalea sp. USM4 (JCM 19919)). The test can be described thus: SEC.

Take “Polyhydroxyalkanoate synthase PhaC from Aquitalea sp. USM4 (JCM 19919) (enzyme)”: the stoichiometry N amounted to 2.
